Source: PMC8888459

Target: NIA–Isu1 complex with C. thermophilum Isu1 (S. cerevisiae | E. coli (endogenous in the expression host) | C. thermophilum) (UniProt P25374)
Test: pull-down; competition: Yfh1^GST (2.5 μM) with NIA (5 μM) and Isu1Ct (7.5 μM), then Yah1 WT (increasing concentrations, 50 μM) or Yah1(DD/KK) (50 μM) added; glutathione resin; densitometry, amount without Yah1 set as 100%; buffer PD

Sequence of NIA–Isu1 complex with C. thermophilum Isu1 (S. cerevisiae | E. coli (endogenous in the expression host) | C. thermophilum) (P25374 whole entry, looked up, one chain of several): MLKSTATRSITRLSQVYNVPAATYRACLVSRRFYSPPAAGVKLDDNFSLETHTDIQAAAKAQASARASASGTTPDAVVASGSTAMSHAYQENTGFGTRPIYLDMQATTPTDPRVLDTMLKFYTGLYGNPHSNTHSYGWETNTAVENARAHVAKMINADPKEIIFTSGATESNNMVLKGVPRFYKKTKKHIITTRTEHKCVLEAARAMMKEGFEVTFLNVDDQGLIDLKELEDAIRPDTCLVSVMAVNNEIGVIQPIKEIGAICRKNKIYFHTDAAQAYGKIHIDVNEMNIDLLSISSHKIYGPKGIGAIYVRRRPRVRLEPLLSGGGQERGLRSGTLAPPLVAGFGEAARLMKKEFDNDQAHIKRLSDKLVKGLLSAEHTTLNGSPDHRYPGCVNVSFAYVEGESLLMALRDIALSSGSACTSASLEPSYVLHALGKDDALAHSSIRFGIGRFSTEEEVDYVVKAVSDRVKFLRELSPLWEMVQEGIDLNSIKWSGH

B1: Yah1 (untagged, holo) (natural protein)
chain: IAAHLLRTSPSLLTRTTTTTRFLPFSTSSFLNHGHLKKPKPGEELKITFILKDGSQKTYEVCEGETILDIAQGHNLDMEGACGGSCACSTCHVIVDPDYYDALPEPEDDENDMLDLAYGLTETSRLGCQIKMSKDIDGIRVALPQMTRNVNNNDFS
B1 showed a percent of the control left pulled down with Yfh1^GST at 75 μM Yah1 of 35%.
